Reference: PMC4395114 (PLoS Pathogens, 2015)

Target: the molecule itself
Assay: SEC + other: negative stain electron microscopy

B1: RNA-free recombinant WT NP (NΔ7NP, C-terminal His tag), influenza A/WSN/33 (natural protein)
chain: RSYEQMETDGERQNATEIRASVGKMIGGIGRFYIQMCTELKLSDYEGRLIQNSLTIERMVLSAFDERRNKYLEEHPSAGKDPKKTGGPIYRRVDGKWMRELILYDKEEIRRIWRQANNGDDATAGLTHMMIWHSNLNDATYQRTRALVRTGMDPRMCSLMQGSTLPRRSGAAGAAVKGVGTMVMELIRMIKRGINDRNFWRGENGRRTRIAYERMCNILKGKFQTAAQRAMVDQVRESRNPGNAEFEDLIFLARSALILRGSVAHKSCLPACVYGPAVASGYDFEREGYSLVGIDPFRLLQNSQVYSLIRPNENPAHKSQLVWMACHSAAFEDLRVSSFIRGTKVVPRGKLSTRGVQIASNENMETMESSTLELRSRYWAIRTRSGGNTNQQRASSGQISIQPTFSVQRNLPFDRPTIMAAFTGNTEGRTSDMRTEIIRLMESARPEDVSFQGRGVFELSDEKAASPIVPSFDMSNEGSYFFGDNAEEYDN
stoichiometry N: 3 to 6
